In test [1] the target is endotoxin (endotoxin concentrate; δ-endotoxin of Bacillus thuringiensis).
Test [2] shares this target. The source holds these as a separate data set.
Test [3] shares this target. This is another data set of the same source.

In test [1], “recombinant Phoenix dactylifera LEA2 protein PdLEA2.2” displayed an RPW adult mortality rate, endotoxin solution with the LEA protein, 42 °C, 10 days of 75%. This substance also came in with an RPW larval mortality rate, endotoxin solution with the LEA protein, 42 °C, 10 days in test [2] of 84.7%. The substance further gave an RPW egg hatching rate, endotoxin solution with the LEA protein at 1:40, heat stress 42 °C, day 5 in test [3] of 11%.
In test [1], “recombinant Prosopis cineraria dehydrin PcDHN” returned an RPW adult mortality rate, endotoxin solution with the LEA protein, 42 °C, 10 days of 76.3%. The same substance had an RPW larval mortality rate, endotoxin solution with the LEA protein, 42 °C, 10 days in test [2] of 88%. This substance registered an RPW egg hatching rate, endotoxin solution with the LEA protein at 1:40, heat stress 42 °C, day 5 in test [3] of 13.6%.
For “recombinant Citrullus colocynthis dehydrin CcDHN”, the RPW adult mortality rate, endotoxin solution with the LEA protein, 42 °C, 10 days in test [1] amounted to 77.6%. Further, the RPW larval mortality rate, endotoxin solution with the LEA protein, 42 °C, 10 days in test [2] was 89.7%. The substance further registered an RPW egg hatching rate, endotoxin solution with the LEA protein at 1:40, heat stress 42 °C, day 5 in test [3] of 15%.
The like results for “recombinant Phoenix dactylifera LEA2 protein PdLEA2.4” were, in that order, 73.3%, 83.6% and 11.3%.
For “recombinant Phoenix dactylifera dehydrin PdDHN” the same measures were 75%, 85.6% and 11.3%.
For “recombinant Phoenix dactylifera LEA2 protein PdLEA2.3” the same measures were 73.6%, 83.3% and 15%.

These data come from US12385050B1.
